From US20260125469A1 (Hoffmann-La Roche, published 2026) come the findings set out here.

In assay [1] the target is human CD3 on cells (CD3ε) (human, UniProt P07766 23-207). The assay is described as follows: cell-based or functional assay.
Assay [2] addresses T1, Human CD3ε stalk-Fc(knob)-Avi/CD3δ stalk-Fc(hole) (human).
T1 construct: Heterodimer of CD3 delta and CD3 epsilon ectodomains fused to human Fc with knob-into-hole; also called human CD3ε/δ; CD3 antigen
The assay is described as follows: SPR, TCB captured by anti-PG antibody, antigen as analyte, 25°C. Background: Surface plasmon resonance follows binding to a sensor surface in real time, without labels.

In assay [3] the target is T1, Human CD3ε stalk-Fc(knob)-Avi/CD3δ …. The assay is described as above. This is another data set of the same source.
In assay [4] the target is T2, Cynomolgus CD3ε stalk-Fc(knob)-Avi/CD3δ stalk-Fc(hole) (cynomolgus).
T2 construct: also called cynomolgus CD3ε/δ
The assay is described as above.

For assay [5], the target named is T1, Human CD3ε stalk-Fc(knob)-Avi/CD3δ …. The assay is described as follows: SPR on immobilized human CD3ε/δ after stress, relative to sample kept at -80°C pH 6. The method in brief: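 TCB antibodies (1.0 mg/ml) were stressed 14 days at 37° C pH 7.4 (PBS) or 40° C pH 6 (His/NaCl), referenced to -80° C pH 6 samples. On biotinylated CD3ε/δ at 25° C, 2 μg/ml was injected 30 s; response 5 s post-injection was normalized to anti-huIgG capture.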

The target is the same in assay [6]. The assay is described as follows: SPR, monovalent IgG captured by anti-PG antibody, antigen as analyte, 25°C.
The target is the same in assay [7]. The assay is described as above. As for the experimental part: (§1) SPR experiments were performed as described in Example 3, with the monovalent IgG molecules prepared in Example 19.
(§2) To analyze the interaction to CD3, IgG molecules were captured for 240 s at 50 nM with a flow rate of 5 μl/min. Human and cynomolgus CD3F stalk-Fc(knob)-Avi/CD36-stalk-Fc(hole) were passed at a concentration of 0.061-250 nM with a flow rate of […] through the flow cells for 300 s. The dissociation was monitored for 800 s.
The source holds these as a separate data set.

Assay [8] concerns the target T2, Cynomolgus CD3ε stalk-Fc(knob)-Avi/CD3δ …. The description is as above. The procedure: as §1, §2
In assay [9] the target is T1, Human CD3ε stalk-Fc(knob)-Avi/CD3δ …. The assay is described as follows: SPR on immobilized human CD3ε/δ after stress, relative to sample kept at -80°C pH 6. As for the experimental part:
(§3) All SPR experiments were performed on a Biacore T200 instrument (GE Healthcare) at 25° C. with HBS-P+ (10 mM HEPES, 150 mM NaCl pH 7.4, 0.05% Surfactant P20) as running and dilution buffer. Biotinylated human CD3ε/δ (see Example 3, SEQ ID NOs 41 and 42) as well as biotinylated anti-huIgG (Capture Select, Thermo Scientific, #7103262100) were immobilized on a Series S Sensor Chip SA (GE Healthcare, #29104992), resulting in surface densities of at least 1000 resonance units (RU). Anti-CD3 antibodies with a concentration of 2 μg/ml were injected for 30 s at a flow rate of 5 μl/min, and dissociation was monitored for 120 s. The surface was regenerated by injecting 10 mM glycine pH 1.5 for 60 s. Bulk refractive index differences were corrected by subtracting blank injections and by subtracting the response obtained from a blank control flow cell. For evaluation, the binding response 5 seconds after injection end was taken. To normalize the binding signal, the CD3 binding was divided by the anti-huIgG response (the signal (RU) obtained upon capture of the CD3 antibody on the immobilized anti-huIgG antibody). The relative binding activity was calculated by referencing each temperature stressed sample to the corresponding, non-stressed sample.
The experiment was performed as described in Example 4, using the monovalent IgG molecules prepared in Example 19.
The source holds these as a separate data set.

The target is the same in assay [10]. The assay can be described thus: SPR, TCB captured by anti-PG antibody, antigen as analyte, 25°C. An excerpt:
(§4) For affinity measurements, TCB molecules were captured on a C1 sensorchip (GE Healthcare) surface with immobilized anti-Fc(P329G) IgG (an antibody that specifically binds human IgG₁ Fc(P329G); “anti-PG antibody”—see WO 2017/072210, incorporated herein by reference). The experimental setup is schematically depicted in FIG. 3. Capture IgG was coupled to the sensorchip surface by direct immobilization of around 400 resonance units (RU) using the standard amine coupling kit (GE Healthcare Life Sciences).
(§5) To analyze the interaction to CD3, TCB molecules were captured for 80 s at 25 nM with a flow rate of 10 μl/min. […] The dissociation was monitored for 800 s.
(§6) Kinetic constants were derived using the Biacore T200 Evaluation Software (GE Healthcare Life Sciences), to fit rate equations for 1:1 Langmuir binding by numerical integration. The half-life (t_{1/2}) of the interaction was calculated using the formula t_{1/2}=ln2/koff.
The source holds these as a separate data set.

Assay [11] has as its target T2, Cynomolgus CD3ε stalk-Fc(knob)-Avi/CD3δ …. The description is as above.
Text: as §4, §5, §6
The source holds these as a separate data set.

In assay [12] the target is T1, Human CD3ε stalk-Fc(knob)-Avi/CD3δ …. The assay is described as follows: SPR on immobilized human CD3ε/δ after stress, relative to sample kept at -80°C pH 6. As for the experimental part: In order to assess the effect of the deamidation site removal and its effect on the stability of the antibodies, the optimized anti-CD3 antibodies (in TCB format) were incubated for 14 days at 37° C., pH 7.4 and at 40° C., pH 6 and further analyzed by SPR for their binding capability to human CD3ε/δ. Samples stored at −80° C. pH 6 were used as reference. The reference samples and the samples stressed at 40° C. were in 20 mM His, 140 mM NaCl, pH 6.0, and the samples stressed at 37° C. in PBS, pH 7.4, all at a concentration of 1.0 mg/ml. After the stress period (14 days) samples in PBS were dialyzed back to 20 mM His, 140 mM NaCl, pH 6.0 for further analysis.
as §3
The source holds these as a separate data set.

Like-named read-outs stand apart in the source and are kept apart here. A value given as a limit tells only on which side of the number the result lay.

For orientation: Kd means the free concentration of one partner at which half of the binding sites on the other are occupied at equilibrium, for simple one-to-one binding. A higher Kd goes with weaker binding. Usually koff stands for a measure of how fast the partners let go of each other. A lower koff goes with slow dissociation. The term kon denotes the second-order rate constant of association.

Chain of human CD3 on cells (CD3ε) (P07766 23-207 limits assumed): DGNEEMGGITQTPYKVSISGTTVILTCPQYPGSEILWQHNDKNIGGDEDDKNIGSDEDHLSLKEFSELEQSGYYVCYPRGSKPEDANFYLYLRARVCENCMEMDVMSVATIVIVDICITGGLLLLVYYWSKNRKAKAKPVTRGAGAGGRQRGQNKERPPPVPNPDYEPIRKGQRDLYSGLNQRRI

B1: CEACAM5-TCB, CEACAM5 CD3 variant P033.078 (bispecific antibody, human IgG1, kappa, L234A L235A)
heavy 1: not shown
heavy 2: QVQLVQSGAEVKKPGSSVKVSCKASGFNIKDTYMHWVRQAPGQGLEWMGRIDPANGNSKYVPKFQGRVTITADTSTSTAYMELSSLRSEDTAVYYCAPFGYYVSDYAMAYWGQGTLVTVSSASTKGPSVFPLAPSSKSTSGGTAALGCLVEDYFPEPVTVSWNSGALTSGVHTFPAVLQSSGLYSLSSVVTVPSSSLGTQTYICNVNHKPSNTKVDEKVEPKSCDKTHTCPPCPAPEAAGGPSVFLFPPKPKDTLMISRTPEVTCVVVDVSHEDPEVKFNWYVDGVEVHNAKTKPREEQYNSTYRVVSVLTVLHQDWLNGKEYKCKVSNKALGAPIEKTISKAKGQPREPQVCTLPPSRDELTKNQVSLSCAVKGFYPSDIAVEWESNGQPENNYKTTPPVLDSDGSFFLVSKLTVDKSRWQQGNVFSCSVMHEALHNHYTQKSLSLSP
light 1: EIVLTQSPATLSLSPGERATLSCRAGESVDIFGVGFLHWYQQKPGQAPRLLIYRASNRATGIPARFSGSGSGTDFTLTISSLEPEDFAVYYCQQTNEDPYTFGQGTKLEIKRTVAAPSVFIFPPSDRKLKSGTASVVCLLNNFYPREAKVQWKVDNALQSGNSQESVTEQDSKDSTYSLSSTLTLSKADYEKHKVYACEVTHQGLSSPVTKSFNRGEC
light 2: EVQLLESGGGLVQPGGSLRLSCAASGFTFESYAMNWVRQAPGKGLEWVSRIRSKYNEYATYYADSVKGRFTISRDDSKNTLYLQMNSLRAEDTAVYYCVRASNFPSSFVSYFGYWGQGTLVTVSSASVAAPSVFIFPPSDEQLKSGTASVVCLLNNFYPREAKVQWKVDNALQSGNSQESVTEQDSKDSTYSLSSTLTLSKADYEKHKVYACEVTHQGLSSPVTKSFNRGEC
notes: 2+1 IgG CrossFab, inverted; human IgG1 Fc, knob-into-hole, PGLALA; also called P033.078 in CEACAM5-TCB format
Consider B1, for which, in [1], the “EC50 24 h (pM), T-cell mediated lysis of CEACAM5-expressing LS180 tumor cells” value is 58 pM and the “EC50 48 h (pM), T-cell mediated lysis of CEACAM5-expressing LS180 tumor cells” value amounted to 36.1 pM. Further, in assay [2], the “fold higher binding half-life than CD3orig” value is above 3 fold. Further, in assay [3], the equilibrium dissociation constant (Kd) worked out at 0.562 nM, the koff is 0.000886 s⁻¹, the kon is 1.59e+06 M⁻¹ s⁻¹ and the t1/2 amounted to 13 min. In [4], this molecule returned a dissociation constant (Kd) of 0.324 nM, a koff of 0.000675 s⁻¹, an on-rate (kon) of 2.08e+06 M⁻¹ s⁻¹ and a t1/2 of 17.1 min. Also, in assay [5], the “binding activity [%] after 2 weeks at pH 6.0/40°C” value was 101% and the “binding activity [%] after 2 weeks at pH 7.4/37°C” value is 99%.

B2: anti-CD3 antibody clone P033.078 in monovalent IgG format (antibody)
heavy: not shown
chain: DKTHTCPPCPAPEAAGGPSVFLFPPKPKDTLMISRTPEVTCVVVDVSHEDPEVKFNWYVDGVEVHNAKTKPREEQYNSTYRVVSVLTVLHQDWLNGKEYKCKVSNKALGAPIEKTISKAKGQPREPQVCTLPPSRDELTKNQVSLSCAVKGFYPSDIAVEWESNGQPENNYKTTPPVLDSDGSFFLVSKLTVDKSRWQQGNVFSCSVMHEALHNHYTQKSLSLSP
light: EVQLLESGGGLVQPGGSLRLSCAASGFTFESYAMNWVRQAPGKGLEWVSRIRSKYNEYATYYADSVKGRFTISRDDSKNTLYLQMNSLRAEDTAVYYCVRASNFPSSFVSYFGYWGQGTLVTVSSASVAAPSVFIFPPSDEQLKSGTASVVCLLNNFYPREAKVQWKVDNALQSGNSQESVTEQDSKDSTYSLSSTLTLSKADYEKHKVYACEVTHQGLSSPVTKSFNRGEC
notes: also called monovalent IgG P033.078
In the case of B2, in assay [6], the “fold higher binding half-life than CD3orig” value was above 2 fold. Also, in [7], the affinity, expressed as Kd, was 0.771 nM; the koff came out at 0.00133 s⁻¹; the kon turned out to be 1.73e+06 M⁻¹ s⁻¹; the t1/2 is 8.69 min. In assay [8], this molecule yielded a dissociation constant (Kd) of 0.403 nM, an off-rate (koff) of 0.00104 s⁻¹, a kon of 2.6e+06 M⁻¹ s⁻¹ and a t1/2 of 11.1 min. In [9], the “binding activity [%] after 2 weeks at pH 6.0/40°C” value worked out at 98% and the “binding activity [%] after 2 weeks at pH 7.4/37°C” value came out at 95%.

B3: TYRP1-TCB with anti-CD3 antibody clone P033.078 (bispecific antibody, human IgG1, kappa, L234A L235A)
heavy 1: not shown
heavy 2: QVQLVQSGAEVKKPGASVKVSCKASGFNIKDYFLHWVRQAPGQGLEWMGWINPDNGNTVYAQKFQGRVTMTADTSTSTVYMELSSLRSEDTAVYYCTRRDYTYEKAALDYWGQGTLVTVSSASTKGPSVFPLAPSSKSTSGGTAALGCLVEDYFPEPVTVSWNSGALTSGVHTFPAVLQSSGLYSLSSVVTVPSSSLGTQTYICNVNHKPSNTKVDEKVEPKSCDKTHTCPPCPAPEAAGGPSVFLFPPKPKDTLMISRTPEVTCVVVDVSHEDPEVKFNWYVDGVEVHNAKTKPREEQYNSTYRVVSVLTVLHQDWLNGKEYKCKVSNKALGAPIEKTISKAKGQPREPQVCTLPPSRDELTKNQVSLSCAVKGFYPSDIAVEWESNGQPENNYKTTPPVLDSDGSFFLVSKLTVDKSRWQQGNVFSCSVMHEALHNHYTQKSLSLSP
light 1: DIQMTQSPSSLSASVGDRVTITCRASGNIYNYLAWYQQKPGKVPKLLIYDAKTLADGVPSRFSGSGSGTDFTLTISSLQPEDVATYYCQHFWSLPFTFGQGTKLEIKRTVAAPSVFIFPPSDRKLKSGTASVVCLLNNFYPREAKVQWKVDNALQSGNSQESVTEQDSKDSTYSLSSTLTLSKADYEKHKVYACEVTHQGLSSPVTKSFNRGEC
light 2: EVQLLESGGGLVQPGGSLRLSCAASGFTFESYAMNWVRQAPGKGLEWVSRIRSKYNEYATYYADSVKGRFTISRDDSKNTLYLQMNSLRAEDTAVYYCVRASNFPSSFVSYFGYWGQGTLVTVSSASVAAPSVFIFPPSDEQLKSGTASVVCLLNNFYPREAKVQWKVDNALQSGNSQESVTEQDSKDSTYSLSSTLTLSKADYEKHKVYACEVTHQGLSSPVTKSFNRGEC
notes: human IgG1 Fc, knob-into-hole, P329G L234A L235A; also called P033.078 in TCB format
With B3, in [2], the “fold higher binding half-life than CD3orig” value was at most 6 fold. Further, in assay [10], binding was characterised by a dissociation constant (Kd) of 0.6 nM, the koff worked out at 0.000996 s⁻¹, the kon was found to be 1.66e+06 M⁻¹ s⁻¹ and the t1/2 amounted to 11.6 min. In assay [11], binding was put at a Kd of 0.37 nM, the koff turned out to be 0.000802 s⁻¹, the on-rate constant (kon) was found to be 2.2e+06 M⁻¹ s⁻¹ and the t1/2 was determined as 14.4 min. In [12], the “binding activity [%] after 2 weeks at pH 6.0/40°C” value was determined as 99% and the “binding activity [%] after 2 weeks at pH 7.4/37°C” value was found to be 99%.
